Data as given in US20230038883A1, “SPECIFIC HOST FACTOR OF HEPATITIS B VIRUS INFECTION, AND USE THEREOF” (priority 2020, published 2023).

T1: SCARF2 EGF4-6 proteins (Homo sapiens, UniProt Q96GP6)
T1 construct: Precision (protease site) tag (internal); human Fc tag (IgG1) (C); made in house; host or cells: 293F cells (pCAGGs vector), purified with Protein A beads
T1 sequence (Q96GP6 183-270): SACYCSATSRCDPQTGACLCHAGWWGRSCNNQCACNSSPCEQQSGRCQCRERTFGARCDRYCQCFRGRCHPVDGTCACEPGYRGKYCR


Columns and labels:
SCARF2 EGF4-6 proteins = molecular target: T1, SCARF2 EGF4-6 proteins; assay: immunoprecipitation of biotin labeled preS1 polypeptides with SCARF2 EGF4-6; format: binding
Text: Compared with SVPs, the virus particles were rich in L protein, and the main functional segment of L protein was the preS1 segment; it was therefore speculated that the SCARF2 EGF4-6 proteins interact with the preS1 segment of the L protein of the virus. […] The C-terminus of each of the synthesized peptides was biotin labeled.

[1] = molecular target: polypeptide containing amino acids 69-108 of preS1 (peptide^69-108) (hepatitis B virus); assay: ForteBio Octet (BLI), biotin-labeled peptide
polypeptide containing amino acids 69-108 of preS1 (peptide^69-108) (hepatitis B virus), sequence (P03138 69-108): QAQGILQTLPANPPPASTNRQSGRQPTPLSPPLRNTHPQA

[2] = molecular target: polypeptide containing amino acids 69-108 of preS1 (peptide^69-108) (hepatitis B virus); assay: ForteBio Octet; sensorgrams at 200, 100, 50 and 25 µg/mL
hepatitis D virus (HDV) = assay: HDV infection; format: cell-based
Text: This phenomenon can be explained and discussed from the following aspects. First, the present invention finds that HDV infection is more dependent on the expression of NTCP on the cell membrane than HBV infection, and HDV infection can occur more easily at a low PEG concentration. Although HDV and HBV have the same viral outer membrane, HDV can be assembled in the absence of L protein. […] Second, SCARF2 contains, at its C-terminus, a signal that can lead to its localization to the nuclear membrane, and a mutant with deletion of the C-terminal Proline-rich domain cannot enhance the infection.

HBV [3] = assay: HBV infection of HepG2-NTCP cells overexpressing SCARF2; format: cell-based
Procedure: FIGS. 8A, 8B, and 8C are schematic diagrams showing the effects of transduction of SCARF2 on infection in Example 6. (FIG. 8A) HepG2-NTCP cells were transduced with SCARF2, CREBH-122, or PWPI, and then infected with HBV in the presence of 1% PEG. (FIG. 8B) HepG2-NTCP cells were transduced with SCARF2, CREBH-122, or PWPI, and then infected with HBV in the presence of 5% PEG. (FIG. 8C) Nuclear and cytoplasmic fractions of the cells at 0 hour, 6 hours, 24 hours, and 72 hours after infection were isolated, and content of HBV DNA in each of the fractions was detected by southern-blot.
In the present invention, SCARF2 was first overexpressed in HepG2-NTCP cell line to test the effects of SCARF2 on HBV infection. […] Meanwhile, from HepG2-NTCP cell line stably expressing SCARF2, HBV DNA was isolated for analysis from the cytoplasm and the nucleus at different time points of HBV infection.

HBV [4] = assay: HBV infection of HepG2-NTCP cells transduced with CREBH and truncated forms (ELISA, HBcAg staining); format: cell-based; conditions: transduced before infection; for HBV infection efficiency (ELISA): 1% PEG and 5% PEG, compared with PWPI-B empty control
Procedure: HepG2-NTCP cells were transduced with lentivirus embedded with CREBH and truncated forms thereof. After 24 hours, the cells were re-seeded in a culture plate, and the culture medium was changed to PMM. After 24 hours, the cells were infected with HBV in the presence of 1% PEG and 5% PEG respectively. Supernatant was collected every 2 days and assayed using an ELISA kit.
HBcAg staining was also performed in the experiments, and results were consistent with the ELISA results. […] It was thus speculated that these two truncated forms might have exerted a dominant-negative effect.

SCARF2 gene = assay: SCARF2 expression after transduction of CREBH and truncated forms (mRNA sequencing, quantitative PCR); format: cell-based; conditions: HepG2-NTCP cells transduced
Text: Since the results of the infection occurred after the transduction of truncated forms of CREBH indicate that the transcriptional activation function of CREBH is necessary for enhancement of the infection, and the shortest functional truncated form CREBH-122-318 is localized on the nucleus, it is inferred that it is by activating a downstream gene that CREBH enhances HBV entry. In order to more accurately determine the downstream major gene, HepG2-NTCP cells transduced with CREBH, CREBH-122, CREBH-307, CREBH-122-318, CREBH-211-318, PWPI-B, and PMM were selected and used for transcriptome sequencing experiments. Meanwhile, CREBH siRNA-2 was selected and used to knock down CREBH in HepG2-NTCP cells. siNC was used as a negative control. Changes in transcriptomes were detected.
The same conclusion was also made from subsequent experiments using quantitative PCR, and the expression levels of SCARF2 were completely consistent with the enhancement effects of CREBH and its various truncated forms on HBV infection observed in the previous text.

APOA4 gene = assay: relative expression of APOA4 after transduction of truncated forms into HepG2-NTCP cells; format: cell-based
Procedure: In order to detect whether each truncated form still had transcriptional activation ability, experiments were conducted by using the activation of APOA4 gene reported in the literature as an indicator of the transcriptional activation ability of CREBH. After the truncated forms were transduced into HepG2-NTCP cells, relative expression of APOA4 was detected. […] CREBH-C also had relatively high activation efficiency, which however was about ⅓ of the activation efficiency of the full-length CREBH.

NTCP mRNA = NTCP mRNA level under CREBH overexpression; format: cell-based; conditions: overexpression in HepG2-NTCP
Text: NTCP is a key receptor in HBV infection and can directly bind to the PreS1 region on the virus. Many factors capable of affecting HBV infection may indirectly affect HBV infection by affecting the expression level or cellular localization of NTCP. In order to detect whether CREBH enhances HBV infection by affecting NTCP, changes in NTCP mRNA level under the condition of overexpressing CREBH was first detected.

HBV [5] = assay: cDNA library screening by HBV infection of HepG2-NTCP cells in 1% PEG; format: cell-based
Procedure: The cDNA library was prepared by packaging lentivirus, with HepG2-NTCP cells expressing the cDNA clones being packaged therein. After 24 hours, infection was conducted with HBV at a same tier in the presence of 1% PEG. Culture supernatant was collected every 2 days, and was tested with HBeAg and HBsAg kits.

[6] = HepG2-NTCP stably expressing SCARF2, southern-blot

Row | Molecule | HDV infection (hepatitis D virus (HDV)) | expression of SCARF2 (SCARF2 gene) | HBV infection efficiency (ELISA) (HBV [4]) | activation of APOA4 gene (relative expression) (APOA4 gene) | NTCP mRNA level (NTCP mRNA) | further results
1 | CC[C@H](C)[C@H](NC(=O)CNC(=O)[C@H](CCC(N)=O)NC(=O)[C@H](C)NC(=O)[C@@H](N)CCC(N)=O)C(=O)N[C@@H](CC(C)C)C(=O)N[C@@H](CCC(N)=O)C(=O)N[C@H](C(=O)N[C@@H](CC(C)C)C(=O)N1CCC[C@H]1C(=O)N[C@@H](C)C(=O)N[C@@H](CC(N)=O)C(=O)N1CCC[C@H]1C(=O)N1CCC[C@H]1C(=O)N1CCC[C@H]1C(=O)N[C@@H](C)C(=O)N[C@@H](CO)C(=O)N[C@H](C(=O)N[C@@H](CC(N)=O)C(=O)N[C@@H](CCCNC(=N)N)C(=O)N[C@@H](CCC(N)=O)C(=O)N[C@@H](CO)C(=O)NCC(=O)N[C@@H](CCCNC(=N)N)C(=O)N[C@@H](CCC(N)=O)C(=O)N1CCC[C@H]1C(=O)N[C@H](C(=O)N1CCC[C@H]1C(=O)N[C@@H](CC(C)C)C(=O)N[C@@H](CO)C(=O)N1CCC[C@H]1C(=O)N1CCC[C@H]1C(=O)N[C@@H](CC(C)C)C(=O)N[C@@H](CCCNC(=N)N)C(=O)N[C@@H](CC(N)=O)C(=O)N[C@H](C(=O)N[C@@H](Cc1c[nH]cn1)C(=O)N1CCC[C@H]1C(=O)N[C@@H](CCC(N)=O)C(=O)N[C@@H](C)C(=O)O)[C@@H](C)O)[C@@H](C)O)[C@@H](C)O)[C@@H](C)O [peptide^69-108] | – | – | – | – | – | binding to SCARF2 EGF4-6 proteins (SCARF2 EGF4-6 proteins): specifically bound
2 | SCARF2 EGF4-6 protein (from UniProt Q96GP6 183-270) (Fc fusion) | – | – | – | – | – | Kd [1]: 58 nM; koff [2]: 0.000289 s⁻¹; kon [2]: 4970 M⁻¹ s⁻¹
3 | SCARF2: Scavenger receptor family F protein, SEQ ID NO:8, overexpressed in HepG2-NTCP cells (protein, listed as Homo sapiens) MEGAGPRGAGPARRRGAGGPPSPLLPSLLLLLLLWMLPDTVAPQELNPRGRNVCRAPGSQVPTCCAGWRQQGDECGIAVCEGNSTCSENEVCVRPGECRCRHGYFGANCDTKCPRQFWGPDCKELCSCHPHGQCEDVTGQCTCHARRWGARCEHACQCQHGTCHPRSGACRCEPGWWGAQCASACYCSATSRCDPQTGACLCHAGWWGRSCNNQCACNSSPCEQQSGRCQCRERTFGARCDRYCQCFRGRCHPVDGTCACEPGYRGKYCREPCPAGFYGLGCRRRCGQCKGQQPCTVAEGRCLTCEPGWNGTKCDQPCATGFYGEGCSHRCPPCRDGHACNHVTGKCTRCNAGWIGDRCETKCSNGTYGEDCAFVCADCGSGHCDFQSGRCLCSPGVHGPHCNVTCPPGLHGADCAQACSCHEDTCDPVTGACHLETNQRKGVMGAGALLVLLVCLLLSLLGCCCACRGKDPTRRPRPRRELSLGRKKAPHRLCGRFSRISMKLPRIPLRRQKLPKVVVAHHDLDNTLNCSFLEPPSGLEQPSPSWSSRASFSSFDTTDEGPVYCVPHEEAPAESRDPEVPTVPAEAPAPSPVPLTTPASAEEAIPLPASSDSERSASSVEGPGGALYARVARREARPARARGEIGGLSLSPSPERRKPPPPDPATKPKVSWIHGKHSAAAAGRAPSPPPPGSEAAPSPSKRKRTPSDKSAHTVEHGSPRTRDPTPRPPGLPEEATALAAPSPPRARARGRGPGLLEPTDAGGPPRSAPEAASMLAAELRGKTRSLGRAEVALGAQGPREKPAPPQKAKRSVPPASPARAPPATETPGPEKAATDLPAPETPRKKTPIQKPPRKKSREAAGELGRAGAPTL | neither of CREBH and SCARF2 can enhance | – | – | – | – | HBV infection (HBV [3]; 1% PEG or 5% PEG): can enhance HBV infection; HBV DNA in fractions of the cytoplasm (HBV [3]; [6]): slightly increased; rcDNA and cccDNA in fractions of the nucleus (HBV [3]; [6]): significantly increased
4 | CREBH-211-318: truncated form of CREBH, residues 211-318, SEQ ID NO:4, expresses only the bZIP domain (protein) QELVLTEDEKKLLAKEGITLPTQLPLTKYEERVLKKIRRKIRNKQSAQESRKKKKEYIDGLETRMSACTAQNQELQRKVLHLEKQNLSLLEQLKKLQAIVVQSTSKSA | – | does not lead to a change in SCARF2 expression | – | – | – | HBV infection (HBcAg staining, consistent with ELISA) (HBV [4]): to some certain extent inhibited the infection
5 | CREBH-122-318: truncated form of CREBH, residues 122-318, SEQ ID NO:3 (protein) MCLSYHPGNSCSTTTPGPVIQVPEASVTIDLEMWSPGGRICAEKPADPVDLSPRCNLTVKDLLLSGSSGDLQQHHLGASYLLRPGAGHCQELVLTEDEKKLLAKEGITLPTQLPLTKYEERVLKKIRRKIRNKQSAQESRKKKKEYIDGLETRMSACTAQNQELQRKVLHLEKQNLSLLEQLKKLQAIVVQSTSKSA | – | significantly up-regulates SCARF2 | increase the infection efficiency | capable of activating APOA4 gene to some extent | slightly down-regulated | –
6 | CREBH: cAMP-responsive element-binding protein, hepatocyte specific; SEQ ID NO:1; expressed by lentiviral transduction (protein, listed as Homo sapiens) MNTDLAAGKMASAACSMDPIDSFELLDLLFDRQDGILRHVELGEGWGHVKDQQVLPNPDSDDFLSSILGSGDSLPSSPLWSPEGSDSGISEDLPSDPQDTPPRSGPATSPAGCHPAQPGKGPCLSYHPGNSCSTTTPGPVIQVPEASVTIDLEMWSPGGRICAEKPADPVDLSPRCNLTVKDLLLSGSSGDLQQHHLGASYLLRPGAGHCQELVLTEDEKKLLAKEGITLPTQLPLTKYEERVLKKIRRKIRNKQSAQESRKKKKEYIDGLETRMSACTAQNQELQRKVLHLEKQNLSLLEQLKKLQAIVVQSTSKSAQTGTCVAVLLLSFALIILPSISPFGPNKTESPGDFAPVRVFSRTLHNDAASRVAADAVPGSEAPGPRPEADTTREESPGSPGADWGFQDTANLTNSTEELDNATLVLRNATEGLGQVALLDWVAPGPSTGSGRAGLEAAGDEL | neither of CREBH and SCARF2 can enhance | can up-regulate the expression of SCARF2 gene, but not to a very significant level | increase the infection efficiency | strongest activation effect | slightly down-regulated | number of HBcAg-positive cells (HBV [5]; HBcAg staining): remarkably increases; HBV infection (HBeAg, HBsAg in supernatant) (HBV [5]; HepG2-NTCP cells expressing cDNA clone, 1% PEG): remarkably enhances HBV infection
